B1: Tripartite motif-containing protein 44, residues 174 to 218; numbered along this chain, Q96DX7 (parent)
chain: VAKRKCPDHGLDLSTYCQEDRQLICVLCPVIGAHQGHQLSTLDEA

We go through 57 variants from the Human Domainome abundance scans (Beltran et al. 2025).

± gives the uncertainty stated by the source.

In this series the parent is B1. Nature of the series: abundance fitness (aPCA) (normalised: wild type 0, dead -1); higher = more abundant; growth selection in yeast, the domain comes from the species named. The following applies: Homo sapiens.
On to VAKRKCPDHGLDLSDYCQEDRQLICVLCPVIGAHQGHQLSTLDEA [T15D], for which the abundance fitness is -0.006 ± 0.036.

As for VAKRKCPDHGLDLSFYCQEDRQLICVLCPVIGAHQGHQLSTLDEA [T15F], the abundance fitness was -0.382 ± 0.046. Take VAKRKCPDHGLDLSCYCQEDRQLICVLCPVIGAHQGHQLSTLDEA [T15C]: the abundance fitness was -0.153 ± 0.034.

For the variant VAKRKCPDHGLDLSAYCQEDRQLICVLCPVIGAHQGHQLSTLDEA [T15A], the abundance fitness was -0.085 ± 0.029. In the case of VAKRKCPDHGLDHSTYCQEDRQLICVLCPVIGAHQGHQLSTLDEA [L13H], the abundance fitness is -0.339 ± 0.056. The figure for VAKRKCPDHGLDYSTYCQEDRQLICVLCPVIGAHQGHQLSTLDEA [L13Y] is -0.147 ± 0.053. In the case of VAKRKCPDHGLDGSTYCQEDRQLICVLCPVIGAHQGHQLSTLDEA [L13G], the abundance fitness was -0.282 ± 0.027. VAKRKCPDHGLDESTYCQEDRQLICVLCPVIGAHQGHQLSTLDEA [L13E]: the abundance fitness was -0.123 ± 0.033. Turning to VAKRKCPDHGLDNSTYCQEDRQLICVLCPVIGAHQGHQLSTLDEA [L13N], the abundance fitness is -0.296 ± 0.082. For the variant VAKRKCPDHGLDKSTYCQEDRQLICVLCPVIGAHQGHQLSTLDEA [L13K], the abundance fitness is -0.204 ± 0.039.

Turning to VAKRKCPDHGLDSSTYCQEDRQLICVLCPVIGAHQGHQLSTLDEA [L13S], the abundance fitness is -0.166 ± 0.03.

On to VAKRKCPDHGLDPSTYCQEDRQLICVLCPVIGAHQGHQLSTLDEA [L13P], for which the abundance fitness is -0.276 ± 0.035. Turning to VAKRKCPDHGLDRSTYCQEDRQLICVLCPVIGAHQGHQLSTLDEA [L13R], the abundance fitness is -0.1 ± 0.027. For the variant VAKRKCPDHGLDMSTYCQEDRQLICVLCPVIGAHQGHQLSTLDEA [L13M], the abundance fitness was -0.031 ± 0.033. Turning to VAKRKCPDHGLDQSTYCQEDRQLICVLCPVIGAHQGHQLSTLDEA [L13Q], the abundance fitness was -0.009 ± 0.039.

VAKRKCPDHGLDWSTYCQEDRQLICVLCPVIGAHQGHQLSTLDEA [L13W]: the abundance fitness is -0.175 ± 0.028. Then VAKRKCPDHGLDCSTYCQEDRQLICVLCPVIGAHQGHQLSTLDEA [L13C], with -0.034 ± 0.045. As for VAKRKCPDHGLDISTYCQEDRQLICVLCPVIGAHQGHQLSTLDEA [L13I], the abundance fitness was -0.154 ± 0.13. Turning to VAKRKCPDHGLDFSTYCQEDRQLICVLCPVIGAHQGHQLSTLDEA [L13F], the abundance fitness is -0.186 ± 0.054. As to VAKRKCPDHGLDVSTYCQEDRQLICVLCPVIGAHQGHQLSTLDEA [L13V], the abundance fitness was -0.082 ± 0.028. VAKRKCPDHGLDTSTYCQEDRQLICVLCPVIGAHQGHQLSTLDEA [L13T]: the abundance fitness is -0.079 ± 0.032.

On to VAKRKCPDHNLDLSTYCQEDRQLICVLCPVIGAHQGHQLSTLDEA [G10N], for which the abundance fitness was found to be 0.118 ± 0.077. The figure for VAKRKCPDHILDLSTYCQEDRQLICVLCPVIGAHQGHQLSTLDEA [G10I] is -0.445 ± 0.14; for VAKRKCPDHWLDLSTYCQEDRQLICVLCPVIGAHQGHQLSTLDEA [G10W] it is -0.311 ± 0.034. As to VAKRKCPDHYLDLSTYCQEDRQLICVLCPVIGAHQGHQLSTLDEA [G10Y], the abundance fitness was -0.125 ± 0.082. VAKRKCPDHVLDLSTYCQEDRQLICVLCPVIGAHQGHQLSTLDEA [G10V]: the abundance fitness was -0.519 ± 0.03. With VAKRKCPDHLLDLSTYCQEDRQLICVLCPVIGAHQGHQLSTLDEA [G10L], the abundance fitness was -0.116 ± 0.029. Turning to VAKRKCPDHMLDLSTYCQEDRQLICVLCPVIGAHQGHQLSTLDEA [G10M], the abundance fitness is -0.078 ± 0.031. With VAKRKCPDHRLDLSTYCQEDRQLICVLCPVIGAHQGHQLSTLDEA [G10R], the abundance fitness is -0.147 ± 0.026. In the case of VAKRKCPDHTLDLSTYCQEDRQLICVLCPVIGAHQGHQLSTLDEA [G10T], the abundance fitness is -0.347 ± 0.033. For VAKRKCPDHKLDLSTYCQEDRQLICVLCPVIGAHQGHQLSTLDEA [G10K], the abundance fitness was -0.106 ± 0.041.

For VAKRKCPDHELDLSTYCQEDRQLICVLCPVIGAHQGHQLSTLDEA [G10E], the abundance fitness is -0.074 ± 0.032. Then VAKRKCPDHHLDLSTYCQEDRQLICVLCPVIGAHQGHQLSTLDEA [G10H], with 0.002 ± 0.04; and VAKRKCPDHPLDLSTYCQEDRQLICVLCPVIGAHQGHQLSTLDEA [G10P], with -0.776 ± 0.052; and VAKRKCPDHSLDLSTYCQEDRQLICVLCPVIGAHQGHQLSTLDEA [G10S], with -0.064 ± 0.03.

In the case of VAKRKCPDHQLDLSTYCQEDRQLICVLCPVIGAHQGHQLSTLDEA [G10Q], the abundance fitness was -0.027 ± 0.031.

On to VAKRKCPDHFLDLSTYCQEDRQLICVLCPVIGAHQGHQLSTLDEA [G10F], for which the abundance fitness was -0.206 ± 0.053. On to VAKRKCPDHCLDLSTYCQEDRQLICVLCPVIGAHQGHQLSTLDEA [G10C], for which the abundance fitness was -0.143 ± 0.039. The figure for VAKRKCPDHGLALSTYCQEDRQLICVLCPVIGAHQGHQLSTLDEA [D12A] is -0.117 ± 0.032; for VAKRKCPDHGLLLSTYCQEDRQLICVLCPVIGAHQGHQLSTLDEA [D12L] it is -0.166 ± 0.035; for VAKRKCPDHGLKLSTYCQEDRQLICVLCPVIGAHQGHQLSTLDEA [D12K] it is -0.082 ± 0.041. As to VAKRKCPDHGLSLSTYCQEDRQLICVLCPVIGAHQGHQLSTLDEA [D12S], the abundance fitness is -0.113 ± 0.029. Take VAKRKCPDHGLILSTYCQEDRQLICVLCPVIGAHQGHQLSTLDEA [D12I]: the abundance fitness is -0.016 ± 0.071. The figure for VAKRKCPDHGLQLSTYCQEDRQLICVLCPVIGAHQGHQLSTLDEA [D12Q] is -0.116 ± 0.044; for VAKRKCPDHGLHLSTYCQEDRQLICVLCPVIGAHQGHQLSTLDEA [D12H] it is 0.017 ± 0.17. With VAKRKCPDHGLYLSTYCQEDRQLICVLCPVIGAHQGHQLSTLDEA [D12Y], the abundance fitness was -0.132 ± 0.039.

With VAKRKCPDHGLFLSTYCQEDRQLICVLCPVIGAHQGHQLSTLDEA [D12F], the abundance fitness is -0.15 ± 0.041. VAKRKCPDHGLMLSTYCQEDRQLICVLCPVIGAHQGHQLSTLDEA [D12M]: the abundance fitness is -0.048 ± 0.048. As to VAKRKCPDHGLELSTYCQEDRQLICVLCPVIGAHQGHQLSTLDEA [D12E], the abundance fitness stood at 0.003 ± 0.035. The figure for VAKRKCPDHGLRLSTYCQEDRQLICVLCPVIGAHQGHQLSTLDEA [D12R] is -0.214 ± 0.032. As to VAKRKCPDHGLGLSTYCQEDRQLICVLCPVIGAHQGHQLSTLDEA [D12G], the abundance fitness is -0.098 ± 0.031. Consider VAKRKCPDHGLPLSTYCQEDRQLICVLCPVIGAHQGHQLSTLDEA [D12P], for which the abundance fitness was -0.033 ± 0.048.

Consider VAKRKCPDHGLNLSTYCQEDRQLICVLCPVIGAHQGHQLSTLDEA [D12N], for which the abundance fitness is -0.072 ± 0.05. With VAKRKCPDHGLCLSTYCQEDRQLICVLCPVIGAHQGHQLSTLDEA [D12C], the abundance fitness is -0.366 ± 0.057. Turning to VAKRKCPDHGLTLSTYCQEDRQLICVLCPVIGAHQGHQLSTLDEA [D12T], the abundance fitness is -0.071 ± 0.038. Take VAKRKCPDHGLWLSTYCQEDRQLICVLCPVIGAHQGHQLSTLDEA [D12W]: the abundance fitness is -0.141 ± 0.033. VAKRKCPDYGLDLSTYCQEDRQLICVLCPVIGAHQGHQLSTLDEA [H9Y]: the abundance fitness was -0.791 ± 0.076.
